Laboratory results taken from the supplement of paper PMC9112550, “Optimization of the antimicrobial peptide Bac7 by deep mutational scanning” (BMC Biology, 2022).

Test system: Escherichia coli TOP10
Assay: shrunken log2 fold change of peptide-encoding DNA abundance (4.5 h post-induction vs induction); higher = less antimicrobial activity (less host growth inhibition)
Details: time post-induction: 4.5 h; library: site-saturation at positions 5, 18, 19, 20
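Further: peptides expressed intracellularly from a pBAD plasmid library in pooled LB shake-flask culture, induced with 0.3% L-arabinose, DNA abundance read by NGS, three biological replicates, DESeq2 with apeglm shrinkage.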

Row | Sequence | shrunken log2 fold change
1 | RRIRVRPPRLPRPRPRPDYAPRP | -0.0204
2 | RRIRNRPPRLPRPRPRPYNEPRP | -0.11
3 | RRIRHRPPRLPRPRPRPNMPPRP | 0.0144
4 | RRIRVRPPRLPRPRPRPYGVPRP | -0.153
5 | RRIRWRPPRLPRPRPRPWADPRP | 0.0109
6 | RRIRWRPPRLPRPRPRPMQMPRP | 1.53
7 | RRIRLRPPRLPRPRPRPVCNPRP | -0.0299
8 | RRIRNRPPRLPRPRPRPHWSPRP | -0.285
9 | RRIRDRPPRLPRPRPRPFLEPRP | -0.192
10 | RRIRVRPPRLPRPRPRPSYGPRP | -0.369
11 | RRIRHRPPRLPRPRPRPRGFPRP | 0.0657
12 | RRIRGRPPRLPRPRPRPVNNPRP | -0.0355
13 | RRIRVRPPRLPRPRPRPPEIPRP | -0.0437
14 | RRIRSRPPRLPRPRPRPEFGPRP | 0.358
15 | RRIRMRPPRLPRPRPRPWFYPRP | -0.418
16 | RRIRSRPPRLPRPRPRPRDEPRP | 0.242
17 | RRIRARPPRLPRPRPRPFNHPRP | -0.436
18 | RRIRWRPPRLPRPRPRPAYMPRP | -0.205
19 | RRIRNRPPRLPRPRPRPWAPPRP | -0.23
20 | RRIRHRPPRLPRPRPRPEWMPRP | 0.188
21 | RRIRMRPPRLPRPRPRPPWPPRP | 1.1
22 | RRIRTRPPRLPRPRPRPMMQPRP | -0.0796
23 | RRIRQRPPRLPRPRPRPFNEPRP | -0.03
24 | RRIRRRPPRLPRPRPRPISGPRP | 0.0239
25 | RRIRIRPPRLPRPRPRPMKFPRP | -0.387

Row | Sequence | shrunken log2 fold change
26 | RRIRIRPPRLPRPRPRPREIPRP | -0.0162
27 | RRIRVRPPRLPRPRPRPRLVPRP | 1.56
28 | RRIRMRPPRLPRPRPRPFPSPRP | -0.18
29 | RRIRYRPPRLPRPRPRPEWRPRP | 0.172
30 | RRIRHRPPRLPRPRPRPEENPRP | 0.0237
31 | RRIRSRPPRLPRPRPRPAYGPRP | -0.122
32 | RRIRRRPPRLPRPRPRPWVCPRP | 0.0925
33 | RRIRHRPPRLPRPRPRPALVPRP | -0.0926
34 | RRIRFRPPRLPRPRPRPTIAPRP | -0.27
35 | RRIRERPPRLPRPRPRPTTKPRP | 0.0648
36 | RRIRMRPPRLPRPRPRPVANPRP | 0.331
37 | RRIRNRPPRLPRPRPRPKRTPRP | -0.0256
38 | RRIRARPPRLPRPRPRPELKPRP | 0.488
39 | RRIRLRPPRLPRPRPRPYFVPRP | -0.65
40 | RRIRLRPPRLPRPRPRPEHPPRP | -0.00635
41 | RRIRIRPPRLPRPRPRPLNHPRP | -0.458
42 | RRIRQRPPRLPRPRPRPAGIPRP | 0.0977
43 | RRIRDRPPRLPRPRPRPFDSPRP | -0.0169
44 | RRIRRRPPRLPRPRPRPSNCPRP | -0.252
45 | RRIRTRPPRLPRPRPRPCWEPRP | 0.203
46 | RRIRQRPPRLPRPRPRPRLVPRP | 0.211
47 | RRIRFRPPRLPRPRPRPYVWPRP | 0.109
48 | RRIRSRPPRLPRPRPRPCCMPRP | -0.0571
49 | RRIRSRPPRLPRPRPRPCVPPRP | -0.0369
50 | RRIRERPPRLPRPRPRPVSIPRP | -1.57

Row | Sequence | shrunken log2 fold change
51 | RRIRPRPPRLPRPRPRPIPLPRP | -0.191
52 | RRIRIRPPRLPRPRPRPTTGPRP | -0.228
53 | RRIRFRPPRLPRPRPRPKDSPRP | -0.335
54 | RRIRVRPPRLPRPRPRPDLYPRP | -0.35
55 | RRIRFRPPRLPRPRPRPHDMPRP | -0.292
56 | RRIRRRPPRLPRPRPRPQTHPRP | 0.361
57 | RRIRMRPPRLPRPRPRPKQGPRP | -0.000896
58 | RRIRQRPPRLPRPRPRPWTWPRP | -0.0328
59 | RRIRQRPPRLPRPRPRPVAFPRP | -0.0706
60 | RRIRERPPRLPRPRPRPDRRPRP | 0.0868
61 | RRIRWRPPRLPRPRPRPYGWPRP | -0.0271
62 | RRIRMRPPRLPRPRPRPGWMPRP | 0.622
63 | RRIRCRPPRLPRPRPRPPNPPRP | 0.761
64 | RRIRKRPPRLPRPRPRPNYDPRP | -0.359
65 | RRIRHRPPRLPRPRPRPLRLPRP | 0.199
66 | RRIRQRPPRLPRPRPRPCIQPRP | -0.118
67 | RRIRARPPRLPRPRPRPYKNPRP | -0.524
68 | RRIRRRPPRLPRPRPRPICSPRP | 0.0991
69 | RRIRWRPPRLPRPRPRPQDYPRP | -0.406
70 | RRIRRRPPRLPRPRPRPIRPPRP | 0.198
71 | RRIRCRPPRLPRPRPRPNKTPRP | -0.0276
72 | RRIRSRPPRLPRPRPRPQMAPRP | 0.0615
73 | RRIRIRPPRLPRPRPRPAVWPRP | 0.141
74 | RRIRHRPPRLPRPRPRPQMMPRP | -0.279
75 | RRIRWRPPRLPRPRPRPMATPRP | 0.26

Row | Sequence | shrunken log2 fold change
76 | RRIRPRPPRLPRPRPRPCPSPRP | 0.0668
77 | RRIRWRPPRLPRPRPRPECMPRP | 0.623
78 | RRIRMRPPRLPRPRPRPPEFPRP | 1.05
79 | RRIRYRPPRLPRPRPRPFNQPRP | -0.0309
80 | RRIRPRPPRLPRPRPRPMGGPRP | 0.113
81 | RRIRNRPPRLPRPRPRPKAPPRP | -0.0518
82 | RRIRGRPPRLPRPRPRPGLSPRP | 1.12
83 | RRIRYRPPRLPRPRPRPYWFPRP | -0.142
84 | RRIRFRPPRLPRPRPRPVHWPRP | -0.105
85 | RRIRTRPPRLPRPRPRPHTLPRP | -0.792
86 | RRIRSRPPRLPRPRPRPPNIPRP | -0.251
87 | RRIRERPPRLPRPRPRPQDAPRP | 0.0745
88 | RRIRSRPPRLPRPRPRPEGEPRP | 0.809
89 | RRIRRRPPRLPRPRPRPYYGPRP | -0.132
90 | RRIRFRPPRLPRPRPRPRSEPRP | 0.11
91 | RRIRWRPPRLPRPRPRPGNRPRP | -0.00977
92 | RRIRNRPPRLPRPRPRPCQEPRP | 0.15
93 | RRIRHRPPRLPRPRPRPTWSPRP | 0.0859
94 | RRIRVRPPRLPRPRPRPGWIPRP | 0.486
95 | RRIRNRPPRLPRPRPRPHLHPRP | -0.121
96 | RRIRNRPPRLPRPRPRPYPAPRP | 0.0741
97 | RRIRWRPPRLPRPRPRPPQDPRP | 0.267
98 | RRIRVRPPRLPRPRPRPMELPRP | -0.135
99 | RRIRDRPPRLPRPRPRPPRIPRP | 0.185
100 | RRIRDRPPRLPRPRPRPRVIPRP | -0.305

Row | Sequence | shrunken log2 fold change
101 | RRIRTRPPRLPRPRPRPHSVPRP | 0.0184
102 | RRIRDRPPRLPRPRPRPFKDPRP | -0.00443
103 | RRIRVRPPRLPRPRPRPDTLPRP | -0.712
104 | RRIRWRPPRLPRPRPRPCMYPRP | -0.325
105 | RRIRIRPPRLPRPRPRPNQHPRP | -0.337
106 | RRIRARPPRLPRPRPRPHQCPRP | -0.0483
107 | RRIRIRPPRLPRPRPRPVHDPRP | -0.0869
108 | RRIRVRPPRLPRPRPRPTYIPRP | -0.51
109 | RRIRLRPPRLPRPRPRPASTPRP | 0.0489
110 | RRIRMRPPRLPRPRPRPRTDPRP | -0.0668
111 | RRIRERPPRLPRPRPRPAYRPRP | -0.429
112 | RRIRLRPPRLPRPRPRPAMNPRP | -0.397
113 | RRIRFRPPRLPRPRPRPRMHPRP | -0.0776
114 | RRIRTRPPRLPRPRPRPTLGPRP | 0.0554
115 | RRIRKRPPRLPRPRPRPHSSPRP | 0.0945
116 | RRIRYRPPRLPRPRPRPCKWPRP | -0.063
117 | RRIRWRPPRLPRPRPRPHCTPRP | -0.401
118 | RRIRLRPPRLPRPRPRPGAKPRP | -0.548
119 | RRIRWRPPRLPRPRPRPDSKPRP | -0.133
120 | RRIRGRPPRLPRPRPRPYWAPRP | 0.211
121 | RRIRHRPPRLPRPRPRPERAPRP | 0.305
122 | RRIRIRPPRLPRPRPRPCQCPRP | -1.17
123 | RRIRDRPPRLPRPRPRPVYLPRP | -0.219
124 | RRIRFRPPRLPRPRPRPITRPRP | 0.114
125 | RRIRRRPPRLPRPRPRPWNIPRP | -0.0317

Row | Sequence | shrunken log2 fold change
126 | RRIRCRPPRLPRPRPRPLMEPRP | -0.0946
127 | RRIRARPPRLPRPRPRPFMRPRP | 0.59
128 | RRIRKRPPRLPRPRPRPVILPRP | -0.612
129 | RRIRIRPPRLPRPRPRPTQFPRP | 0.000325
130 | RRIRYRPPRLPRPRPRPRWCPRP | 0.246
131 | RRIRGRPPRLPRPRPRPWQNPRP | 0.041
132 | RRIRGRPPRLPRPRPRPNGTPRP | 0.54
133 | RRIRNRPPRLPRPRPRPWTTPRP | -0.0122
134 | RRIRFRPPRLPRPRPRPKLWPRP | 0.287
135 | RRIRVRPPRLPRPRPRPQETPRP | 0.0431
136 | RRIRMRPPRLPRPRPRPLAYPRP | -0.093
137 | RRIRCRPPRLPRPRPRPSWPPRP | -0.155
138 | RRIRGRPPRLPRPRPRPEYMPRP | 0.409
139 | RRIRKRPPRLPRPRPRPQKDPRP | 0.00486
140 | RRIRARPPRLPRPRPRPVMGPRP | 0.177
141 | RRIRNRPPRLPRPRPRPTQIPRP | 0.135
142 | RRIRVRPPRLPRPRPRPKLRPRP | 0.128
143 | RRIRVRPPRLPRPRPRPSIAPRP | -0.0218
144 | RRIRYRPPRLPRPRPRPTWTPRP | 0.0315
145 | RRIRRRPPRLPRPRPRPQEKPRP | 0.0332
146 | RRIRTRPPRLPRPRPRPQNLPRP | -0.135
147 | RRIRKRPPRLPRPRPRPCRFPRP | 0.0338
148 | RRIRCRPPRLPRPRPRPAMVPRP | 0.204
149 | RRIRLRPPRLPRPRPRPMDVPRP | 0.0104
150 | RRIRTRPPRLPRPRPRPCHNPRP | -0.0285
